Data published in paper doi:10.1101/442517 (bioRxiv, 2018).

How the values were obtained:
[1] = target: RaxX21-sY (tyrosine sulfated synthetic 21-residue derivative of RaxX, residues 35-55) (Xanthomonas oryzae pv. oryzae); assay: MST
[2] = target: RaxX21-nY (non-sulfated synthetic 21-residue derivative of RaxX, residues 35-55) (Xanthomonas oryzae pv. oryzae); assay: MST

B1: XA21 extracellular domain (XA21^ECD; XA21 residues 23-649) (domain or fragment)
chain: SDDDGDAAGDELALLSFKSSLLYQGGQSLASWNTSGHGQHCTWVGVVCGRRRRRHPHRVVKLLLRSSNLSGIISPSLGNLSFLRELDLGDNYLSGEIPPELSRLSRLQLLELSDNSIQGSIPAAIGACTKLTSLDLSHNQLRGMIPREIGASLKHLSNLYLYKNGLSGEIPSALGNLTSLQEFDLSFNRLSGAIPSSLGQLSSLLTMNLGQNNLSGMIPNSIWNLSSLRAFSVRENKLGGMIPTNAFKTLHLLEVIDMGTNRFHGKIPASVANASHLTVIQIYGNLFSGIITSGFGRLRNLTELYLWRNLFQTREQDDWGFISDLTNCSKLQTLNLGENNLGGVLPNSFSNLSTSLSFLALELNKITGSIPKDIGNLIGLQHLYLCNNNFRGSLPSSLGRLKNLGILLAYENNLSGSIPLAIGNLTELNILLLGTNKFSGWIPYTLSNLTNLLSLGLSTNNLSGPIPSELFNIQTLSIMINVSKNNLEGSIPQEIGHLKNLVEFHAESNRLSGKIPNTLGDCQLLRYLYLQNNLLSGSIPSALGQLKGLETLDLSSNNLSGQIPTSLADITMLHSLNLSFNSFVGEVPTIGAFAAASGISIQGNAKLCGGIPDLHLPRCCPLLENRK
Kd [1]: 20 nM
Kd [2]: 400 nM
